Data: patent US20210147504A1 (Bayer, published 2021)
Several values for one entry are separate records, joined by “and”; a condition that tells them apart may be missing. Identical values can stand only once.

T1: human NPRA (human, UniProt P16066 33-1061)
T1 sequence (looked up): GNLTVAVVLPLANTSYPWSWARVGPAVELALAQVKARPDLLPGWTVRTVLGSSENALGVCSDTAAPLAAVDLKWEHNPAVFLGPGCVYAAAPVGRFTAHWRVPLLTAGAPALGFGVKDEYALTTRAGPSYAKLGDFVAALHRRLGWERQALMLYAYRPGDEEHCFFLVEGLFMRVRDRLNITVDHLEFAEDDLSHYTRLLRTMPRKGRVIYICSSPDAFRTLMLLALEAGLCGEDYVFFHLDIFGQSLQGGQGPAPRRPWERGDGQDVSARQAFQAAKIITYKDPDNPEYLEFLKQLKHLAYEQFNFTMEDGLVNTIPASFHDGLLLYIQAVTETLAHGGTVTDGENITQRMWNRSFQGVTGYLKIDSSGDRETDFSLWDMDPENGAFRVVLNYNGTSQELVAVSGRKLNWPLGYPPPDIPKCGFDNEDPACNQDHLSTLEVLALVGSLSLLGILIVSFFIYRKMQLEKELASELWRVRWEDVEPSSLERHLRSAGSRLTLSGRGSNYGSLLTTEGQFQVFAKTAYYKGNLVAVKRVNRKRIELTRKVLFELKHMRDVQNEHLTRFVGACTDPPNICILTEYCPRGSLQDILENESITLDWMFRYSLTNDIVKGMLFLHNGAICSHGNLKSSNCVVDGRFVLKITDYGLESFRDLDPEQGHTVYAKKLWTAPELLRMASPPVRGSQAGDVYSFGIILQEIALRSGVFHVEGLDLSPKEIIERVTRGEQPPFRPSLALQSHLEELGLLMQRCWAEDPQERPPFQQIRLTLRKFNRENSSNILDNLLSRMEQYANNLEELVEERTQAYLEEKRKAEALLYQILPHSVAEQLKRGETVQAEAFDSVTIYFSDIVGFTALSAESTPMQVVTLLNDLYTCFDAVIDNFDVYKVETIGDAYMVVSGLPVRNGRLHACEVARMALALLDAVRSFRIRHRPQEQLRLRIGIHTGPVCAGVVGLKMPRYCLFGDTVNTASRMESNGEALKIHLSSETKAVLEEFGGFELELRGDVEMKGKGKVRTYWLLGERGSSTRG

T2: human NPRA (human, UniProt P16066 33-1061)
T2 sequence (looked up): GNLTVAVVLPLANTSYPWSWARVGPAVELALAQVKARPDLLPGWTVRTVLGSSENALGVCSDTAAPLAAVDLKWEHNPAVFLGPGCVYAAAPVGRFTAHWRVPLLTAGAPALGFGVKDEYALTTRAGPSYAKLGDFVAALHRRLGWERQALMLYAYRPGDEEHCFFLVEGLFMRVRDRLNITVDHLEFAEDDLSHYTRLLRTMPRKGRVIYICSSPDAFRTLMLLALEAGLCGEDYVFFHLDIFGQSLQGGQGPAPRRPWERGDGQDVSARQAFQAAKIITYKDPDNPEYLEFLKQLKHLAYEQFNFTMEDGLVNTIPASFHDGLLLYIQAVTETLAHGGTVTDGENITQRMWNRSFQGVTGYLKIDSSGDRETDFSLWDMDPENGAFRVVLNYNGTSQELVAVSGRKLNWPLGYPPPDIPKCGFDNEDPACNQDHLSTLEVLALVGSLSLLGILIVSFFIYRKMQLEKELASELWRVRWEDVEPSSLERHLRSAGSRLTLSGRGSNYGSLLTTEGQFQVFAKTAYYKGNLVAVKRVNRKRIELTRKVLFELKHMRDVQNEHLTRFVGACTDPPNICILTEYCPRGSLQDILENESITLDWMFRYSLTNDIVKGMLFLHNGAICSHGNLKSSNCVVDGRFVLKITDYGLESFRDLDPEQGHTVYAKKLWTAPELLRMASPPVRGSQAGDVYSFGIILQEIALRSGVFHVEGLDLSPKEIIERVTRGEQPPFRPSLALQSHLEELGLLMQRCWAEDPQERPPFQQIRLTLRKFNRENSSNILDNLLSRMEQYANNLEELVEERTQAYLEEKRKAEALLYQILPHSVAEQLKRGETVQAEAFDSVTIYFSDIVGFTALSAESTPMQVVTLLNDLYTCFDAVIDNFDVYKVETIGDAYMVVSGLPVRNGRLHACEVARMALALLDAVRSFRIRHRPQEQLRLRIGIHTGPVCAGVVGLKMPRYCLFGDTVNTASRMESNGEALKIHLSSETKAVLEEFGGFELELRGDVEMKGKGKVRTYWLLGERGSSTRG


Tests used:
human NPRA [1] = molecular target: T1, human NPRA; experiment: cell-based or functional assay
human NPRA [2] = molecular target: T2, human NPRA; experiment: cell-based or functional assay; remark: listed apart in the source

| Binder | activity rcs (human NPRA [1]) [%] | average rel logEC50 (human NPRA [1]) [log vs TPP-5661] | rel. logEC50* pcs (human NPRA [1]) | rel. logEC50 pcs 4 (human NPRA [1]) [log vs TPP-5661] | rel. logEC50 pcs 7 (human NPRA [1]) [log vs TPP-5661] | rel. activity rcs (human NPRA [1]) [log vs TPP-5661] | rel. logEC50 pcs 2 (human NPRA [1]) [log vs TPP-5661] | rel. logEC50 pcs 5 (human NPRA [1]) [log vs TPP-5661] | further results |
| --- | --- | --- | --- | --- | --- | --- | --- | --- | --- |
| TPP-10294 (antibody, human IgG1, lambda) heavy: not shown light: QSVLTQPPSVSGAPGQRVTISCTGSSSNIGAGYDVHWYQQLPGTAPKLLIYGNSNRPSGVPDRFSGSKSGTSASLAITGLQAEDEADYYCQSYDSSLSGVVFGGGTKLTVLGQPKAAPSVTLFPPSSEELQANKATLVCLISDFYPGAVTVAWKADSSPVKAGVETTTPSKQSNNKYAASSYLSLTPEQWKSHRSYSCQVTHEGSTVEKTVAPTECS | 41 | -0.3 | -0.5 log vs TPP-5661 and -0.6 log vs TPP-5661 and -0.4 log vs TPP-5661 | -0.2 | 0 |  |  |  |  |
| TPP-10282 (antibody, human IgG1, lambda) heavy: not shown light: QSVLTQPPSVSGAPGQRVTISCTGSSSNIGAGYDVHWYQQLPGTAPKLLIYGNSNRPSGVPDRFSGSKSGTSASLAITGLQAEDEADYYCQSYDSSLSGVVFGGGTKLTVLGQPKAAPSVTLFPPSSEELQANKATLVCLISDFYPGAVTVAWKADSSPVKAGVETTTPSKQSNNKYAASSYLSLTPEQWKSHRSYSCQVTHEGSTVEKTVAPTECS | 30 | 0.1 |  | 0.1 |  | 0.3 | -0.2 | 0.2 | rel. logEC50 pcs 1 (human NPRA [1]): 0.3 log vs TPP-5661 |
| TPP-13061 (antibody, human IgG1, lambda) heavy: not shown light: QSVLTQPPSVSGAPGQRVTISCTGSSSNIGAGYDVHWYQQLPGTAPKLLIYGNSNRPSGVPDRFSGSKSGTSASLAITGLQAEDEADYYCQSYDSSLSGVVFGGGTKLTVLGQPKAAPSVTLFPPSSEELQANKATLVCLISDFYPGAVTVAWKADSSPVKAGVETTTPSKQSNNKYAASSYLSLTPEQWKSHRSYSCQVTHEGSTVEKTVAPTECS |  | -0.7 | -0.6 log vs TPP-5661 and -0.8 log vs TPP-5661 |  |  |  |  |  |  |
| TPP-5661 (antibody) heavy: not shown light: QSVLTQPPSVSGAPGQRVTISCTGSSSNIGAGYDVHWYQQLPGTAPKLLIYGNSNRPSGVPDRFSGSKSGTSASLAITGLQAEDEADYYCQSYDSSLSGVVFGGGTKLTVLGQPKAAPSVTLFPPSSEELQANKATLVCLISDFYPGAVTVAWKADSSPVKAGVETTTPSKQSNNKYAASSYLSLTPEQWKSHRSYSCQVTHEGSTVEKTVAPTECS |  |  |  |  |  |  |  |  | activity rcs (human NPRA [2]): 36%; average rel logEC50 (human NPRA [2]): 0 log vs TPP-5661; rel. activity rcs (human NPRA [2]): 0 log vs TPP-5661; rel. logEC50* pcs (human NPRA [2]): 0 log vs TPP-5661; rel. logEC50 ics (human NPRA [2]): 0 log vs TPP-5661; rel. logEC50 pcs 1 (human NPRA [2]): 0 log vs TPP-5661; rel. logEC50 pcs 2 (human NPRA [2]): 0 log vs TPP-5661; rel. logEC50 pcs 3 (human NPRA [2]): 0 log vs TPP-5661; rel. logEC50 pcs 4 (human NPRA [2]): 0 log vs TPP-5661; rel. logEC50 pcs 5 (human NPRA [2]): 0 log vs TPP-5661; rel. logEC50 pcs 6 (human NPRA [2]): 0 log vs TPP-5661; rel. logEC50 pcs 7 (human NPRA [2]): 0 log vs TPP-5661; rel. logEC50 pcs 8 (human NPRA [2]): 0 log vs TPP-5661; rel. logEC50 pcs 9 (human NPRA [2]): 0 log vs TPP-5661 |
| TPP-10765 (antibody, human IgG1, lambda) heavy: not shown light: QSVLTQPPSVSGAPGQRVTISCTGSSSNIGAGYDVHWYQQLPGTAPKLLIYGNSNRPSGVPDRFSGSKSGTSASLAITGLQAEDEADYYCQSYDSSLSGVVFGGGTKLTVLGQPKAAPSVTLFPPSSEELQANKATLVCLISDFYPGAVTVAWKADSSPVKAGVETTTPSKQSNNKYAASSYLSLTPEQWKSHRSYSCQVTHEGSTVEKTVAPTECS | 72 | -0.4 |  |  | 0.2 | -0.9 |  | -0.9 | rel. logEC50 pcs 6 (human NPRA [1]): -0.4 log vs TPP-5661 |
| TPP-10274 (antibody) heavy: not shown light: QSVLTQPPSVSGAPGQRVTISCTGSSSNIGAGYDVHWYQQLPGTAPKLLIYGNSNRPSGVPDRFSGSKSGTSASLAITGLQAEDEADYYCQSYDSSLSGVVFGGGTKLTVLGQPKAAPSVTLFPPSSEELQANKATLVCLISDFYPGAVTVAWKADSSPVKAGVETTTPSKQSNNKYAASSYLSLTPEQWKSHRSYSCQVTHEGSTVEKTVAPTECS | 71 | -0.1 |  |  | 0 |  | -0.3 |  | rel. logEC50 pcs 3 (human NPRA [1]): -0.2 log vs TPP-5661 |
